Laboratory results: PMC7831362 (mAbs, 2021)
Each block holds one binder with its values, some of them ahead of it.

Assays:
[1] = biological target: recombinant mouse PD-L1–human Fc chimeric fusion protein (mouse, UniProt Q9EP73 19-239, conjugated with europium cryptate trisbipyridine–N-hydroxysuccinimide); test: AlphaScreen or HTRF
[2] = biological target: natively expressed mouse PD-L1 on mouse tumor cells (Mus musculus (endogenous in Renca cells), UniProt Q9EP73); test: flow cytometry on cells
Sequence of natively expressed mouse PD-L1 on mouse tumor cells (Q9EP73 19-290): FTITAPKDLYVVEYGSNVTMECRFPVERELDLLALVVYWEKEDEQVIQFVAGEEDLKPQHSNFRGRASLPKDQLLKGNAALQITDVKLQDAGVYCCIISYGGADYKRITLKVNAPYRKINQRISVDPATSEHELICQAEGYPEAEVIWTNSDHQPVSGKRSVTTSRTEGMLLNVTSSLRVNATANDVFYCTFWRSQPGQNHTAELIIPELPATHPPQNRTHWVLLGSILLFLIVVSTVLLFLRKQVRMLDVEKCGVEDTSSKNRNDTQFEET

Sequence of recombinant mouse PD-L1–human Fc chimeric fusion protein (Q9EP73 19-239, change not shown): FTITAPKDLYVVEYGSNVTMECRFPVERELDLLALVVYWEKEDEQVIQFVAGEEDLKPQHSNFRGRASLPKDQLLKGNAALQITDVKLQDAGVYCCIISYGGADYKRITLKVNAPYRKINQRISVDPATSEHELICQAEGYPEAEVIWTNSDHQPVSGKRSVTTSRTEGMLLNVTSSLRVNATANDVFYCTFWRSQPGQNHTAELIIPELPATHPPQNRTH

binding result [1]: binds
B1: recombinant mouse B7-1/CD80 Fc chimera His-tag protein (Fc fusion, UniProt Q00609 38-246, looked up)
chain: VDEQLSKSVKDKVLLPCRYNSPHEDESEDRIYWQKHDKVVLSVIAGKLKVWPEYKNRTLYDNTTYSLIILGLVLSDRGTYSCVVQKKERGTYEVKHLALVKLSIKADFSTPNITESGNPSADTKRITCFASGGFPKPRFSWLENGRELPGINTTISQDPESELYTISSQLDFNTTRNHTIKCLIKYGDAHVSEDFTWEKPPEDPPDSKN
modifications: conjugated with DyLight-650

binding result [2]: binds
B2: anti-mouse PD-L1 hybridoma clone 17 (antibody, V domains shown)
VH: EVQLVESGGGLVQPGASLKLSCVASGFTFSDYWMSWVRQNPGKTMEWIGDIKYDGSYTDYAPSLKNRFTISRDNAKSTLYLQMSNVRSEDTATYYCTRATGRRDGYYPTDYFDYWGQGVMVTVSS
VL: DIVLTQSPALAVSLGQRATISCWASQSVSISRYNLMHWYQQKPGQQPKLLIYRASNLAGIPPRFSGSGSGTDFTLTINPVQADDIATYYCQQSRESPNTFGAGTKLELK
